Measurements taken from patent US20260159579A1 (Pfizer, published 2026).
Residue numbers refer to the chain shown, from its start.

Key:
[1] = molecular target: T1, Mouse Fc-human GDF15 (Mu IgG1Fc_Fxa_Hu GDF15) (human); test: SPR BIAcore T200, 37C; Fc-GDF15 captured, monomeric Fc-Fab as analyte; average of runs
T1 construct: Whole entry is the fusion: mouse IgG1 Fc, FXa site and linker, mature human GDF15; described as dimeric; also called Murine dimeric IgG1 Fc-human GDF-15 with FXa cleavage site; control human GDF15
T1 chain: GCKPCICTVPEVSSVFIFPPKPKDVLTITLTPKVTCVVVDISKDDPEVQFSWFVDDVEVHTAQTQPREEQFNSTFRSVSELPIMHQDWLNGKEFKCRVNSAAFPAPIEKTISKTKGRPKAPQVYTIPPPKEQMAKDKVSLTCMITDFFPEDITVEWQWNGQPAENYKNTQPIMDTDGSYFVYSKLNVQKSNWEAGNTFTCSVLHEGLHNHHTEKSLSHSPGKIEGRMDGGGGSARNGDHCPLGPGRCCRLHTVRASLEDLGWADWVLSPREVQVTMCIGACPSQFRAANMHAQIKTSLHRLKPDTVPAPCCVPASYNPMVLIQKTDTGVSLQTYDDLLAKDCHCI
Text: (§1) To understand the KD value, without the avidity effect, of GDF15_001 binding to GDF15, monomeric Fc-Fab was produced and tested in the same assay used in Example 2. […] Mu IgG1Fc_Fxa_Hu GDF15, Mu IgG1Fc_Fxa_Mu GDF15 and Mu IgG1Fc_Fxa_Cyno GDF15 were captured onto three different flow cells of a CM4 sensorchip (catalogue number BR100534, GE Healthcare) surface using the Mouse Antibody Capture Kit (BR100838, GE Healthcare) according to the manufacturer's protocol. The running and sample buffer was 10 mM HEPES pH 7.4, 0.15M NaCl, 3 mM EDTA, 0.05% P-20 (HBS-EP+). The final capture levels of Mu IgG1Fc_Fxa_Hu GDF15, Mu IgG1Fc_Fxa_Mu GDF15 and Mu IgG1Fc_Fxa_Cyno GDF15 were 19 resonance units (RU), 22 RU and 19 RU respectively. Flow cell 1 was used as a reference flow cell. […] The dissociation was monitored for 1200 seconds and the surface was regenerated with 10 mM Glycine pH 1.7. Binding affinities and rate constants were determined by fitting the resulting sensorgram data to a 1:1 Langmuir model in BIAcore T200 Evaluation software version 2.0 (GE Healthcare).

[2] = molecular target: T2, Mouse Fc-cynomolgus monkey GDF15 (Mu IgG1Fc_Fxa_Cyno GDF15) (cynomolgus monkey); test: as above
T2 construct: Whole entry is the fusion: mouse IgG1 Fc, FXa site and linker, cynomolgus GDF15; described as dimeric; also called Murine dimeric IgG1 Fc-cyno GDF-15 with FXa cleavage site
T2 chain: T1 chain with H239R, R254H, A287E, T296M, S297N, I345V
Text: as §1

[3] = molecular target: T3, human TGFß-1 (human, UniProt P01137 279-390); test: BLI, OctetRED 384; family member amine coupled to AR2G biosensor
T3 construct: Bought; also called TGFB-1
Protocol: (§2) To assess the binding specificity of GDF15_001 to human GDF15, GDF15_001 binding to additional TGFB family members was tested. Analysis was carried out on an Octet Red instrument.
(§3) The TGFB family members were diluted to 10 ug/ml in 10 mM Sodium Acetate pH 4.5 and amine coupled onto AR2G biosensors (catalogue #18-5092, ForteBio) according to the manufacturer's instructions. Monomeric GDF15_001 was diluted to 200 nM in kinetics buffer (catalogue #18-5032 ForteBio). Octet assays were conducted at room temperature with an association time of 300 seconds and a dissociation time of 180 seconds. The data was double referenced (Myszka, D., J. Mol. Recognit 1999; 279-284) and analyzed with Octet Data Analysis software version 8.1 (ForteBio).

[4] = molecular target: T4, human BMP9 (human, UniProt Q9UK05 320-429); test: as above
T4 construct: Bought
T4 sequence (looked up): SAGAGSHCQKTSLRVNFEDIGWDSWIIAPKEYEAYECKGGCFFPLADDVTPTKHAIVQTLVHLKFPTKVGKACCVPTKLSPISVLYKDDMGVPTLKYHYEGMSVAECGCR
Protocol: as §2, §3

[5] = molecular target: T5, human BMP11 (human, UniProt O95390 299-407); test: as above
T5 construct: Bought; also called GDF-11
T5 sequence (looked up): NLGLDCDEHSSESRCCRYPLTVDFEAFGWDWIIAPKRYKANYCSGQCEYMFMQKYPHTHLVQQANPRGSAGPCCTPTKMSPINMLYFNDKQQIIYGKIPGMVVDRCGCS
Protocol: as §2, §3

[6] = molecular target: T6, human BMP6 (human, UniProt P22004 382-513, limits assumed); test: as above
T6 construct: Bought
T6 sequence (looked up): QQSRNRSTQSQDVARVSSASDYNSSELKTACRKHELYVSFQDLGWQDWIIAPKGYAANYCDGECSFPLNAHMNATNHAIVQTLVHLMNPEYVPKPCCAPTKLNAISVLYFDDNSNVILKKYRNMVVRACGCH
Protocol: as §2, §3

[7] = molecular target: T7, human BMP2 (human, UniProt P12643 283-396); test: as above
T7 construct: Bought
Protocol: as §2, §3

[8] = molecular target: T8, human Inhibin A (human, UniProt P05111 233-366; P08476 311-426); test: as above
T8 construct: Bought
T8 sequence (looked up) 1: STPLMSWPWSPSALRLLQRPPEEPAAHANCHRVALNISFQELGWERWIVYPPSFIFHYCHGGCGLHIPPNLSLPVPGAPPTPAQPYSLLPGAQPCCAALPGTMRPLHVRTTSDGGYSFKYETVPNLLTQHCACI
T8 sequence (looked up) 2: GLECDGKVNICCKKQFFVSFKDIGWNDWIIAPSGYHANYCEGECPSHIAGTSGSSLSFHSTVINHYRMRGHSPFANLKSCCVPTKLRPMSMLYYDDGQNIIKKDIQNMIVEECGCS
Protocol: as §2, §3

T7 sequence (P12643 283-396 limits assumed): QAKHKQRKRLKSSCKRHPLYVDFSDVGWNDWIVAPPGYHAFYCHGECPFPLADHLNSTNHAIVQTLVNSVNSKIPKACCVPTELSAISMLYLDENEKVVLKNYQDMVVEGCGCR
T3 sequence (P01137 279-390 limits assumed): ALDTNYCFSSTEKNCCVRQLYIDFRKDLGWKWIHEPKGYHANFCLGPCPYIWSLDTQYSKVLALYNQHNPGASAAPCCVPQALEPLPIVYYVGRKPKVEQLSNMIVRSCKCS

Kd [1]: 0.0213 nM | koff [1]: 3.42e-05 s⁻¹ | kon [1]: 1.59e+06 M⁻¹ s⁻¹ | Kd [2]: 0.062 nM | koff [2]: 8.43e-05 s⁻¹ | kon [2]: 1.42e+06 M⁻¹ s⁻¹ | binding result [3]: no binding (tested: 200 nM) | binding result [4]: no binding (tested: 200 nM) | binding result [5]: no binding (tested: 200 nM) | binding result [6]: no binding (tested: 200 nM) | binding result [7]: no binding (tested: 200 nM) | binding result [8]: no binding (tested: 200 nM)
B1: monomeric GDF15_001 (CH23LS-GBT-GDF15_001) (Fab, V domains shown)
VH: QVQLVQSGAEVKKPGSSVKVSCKASGYTFSSYNIDWVRQAPGQGLEWMGGINPIFGTAFYNQKFQGRVTITADESTSTAYMELSSLRSEDTAVYYCAREAITTVGAMDHWGQGTLVTVSS
VL: EIVLTQSPATLSLSPGERATLSCRTSQSVHNYLAWYQQKPGQAPRLLIYDASTRADGIPARFSGSGSGTDFTLTISSLEPEDFAVYYCQQFWSWPWTFGQGTKVEIK
notes: Monovalent 'monomeric Fc-Fab' of GDF15_001 made to measure KD without avidity; also called CH23LS-GDF15_001; monomeric Fc-Fab
